Data from the supplement of paper PMC10567573.
± gives the standard deviation.

Test: protein stability index of a GFP-peptide fusion (GPS, HEK-293T) (PSI 1-6); higher = more stable
[1] = treatment: DMSO, c terminus: a fixed tail appended
[2] = treatment: MLN4924 1 uM, 8 h, c terminus: a fixed tail appended
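Further: 24-mer peptide tiles fused after GFP, lentivirally expressed, FACS-sorted into six equal bins by GFP/DsRed ratio, decoded by Illumina sequencing, PSI is the read-weighted mean bin number.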

Sequence | protein stability index [1] | protein stability index [2] | protein stability index (treatment: DMSO, c terminus: native) | protein stability index (treatment: MLN4924 1 uM, 8 h, c terminus: native)
EELEAKRLQCPFEQELLRRQQRLN [FAM107A] | 4.59 ± 0.15 | 4.63 ± 0.21 | – | –
NFDNPWNFQNIPKETELPFPKQIL [MIA2] | 2.74 ± 0.27 | 2.9 ± 0.4 | – | –
YTVSATAPGYDPETVTVTVGPAEP [CPN1] | 3.61 ± 0.13 | 3.83 ± 0.39 | – | –
SYSLSRKKIVHYTCFDQRKRANAA [CDC14A] | 2.88 ± 0.28 | 3.05 ± 0.12 | – | –
PAGKTPVPAGEEEGELGEYRQKLL [VPS39] | 5.29 ± 0.32 | 5.45 ± 0.2 | – | –
LSLESSPDAPDHTSETSHSPLYAD [PLEKHN1] | 5.47 ± 0.16 | 5.38 ± 0.24 | – | –
DCMGIDRQHIPDTYLCERCQPRNL [KMT2E] | 3.13 ± 0.33 | 3.4 ± 0.4 | – | –
RMETPKSREITTLANNQCMATESV [EHMT1] | 4.56 ± 0.22 | 4.79 ± 0.08 | – | –
LRPQVVTDDDGQAPEAKDGSSFSG [APMAP] | 5.22 ± 0.26 | 5.31 ± 0.15 | – | –
ATKSHVDKVIMKLGKTNAKAVSEM [DYNC2LI1] | 3.57 ± 0.21 | 3.51 ± 0.3 | – | –
QAWFGFAGTPGYLSPEVLRKDPYG [CAMK2D] | 2.86 ± 0.79 | 2.94 ± 0.39 | – | –
EKPIGSCVTNPCGPRSRCGPCNTF [KRT33B] | 2.34 ± 0.24 | 2.52 ± 0.27 | – | –
ERTRKPYNNDIDYYAKRNALRAAE [GALNT9] | 4.1 ± 0.13 | 4.26 ± 0.24 | – | –
AGRAAAPELSYRVCVGSDVTSIHK [MYORG] | 3.32 ± 0.17 | 3.35 ± 0.24 | – | –
LNVFQTVSRMRTQRAFSIQTPEQY [PTPN9] | 2.38 ± 0.33 | 2.54 ± 0.31 | – | –
QQRPHPRSHSREPRAERKCPRIAP [ELOA2] | 4.49 ± 0.46 | 4.53 ± 0.071 | – | –
ERKKNLTLALEALVQLRGRLTSQD [ALG2] | 2.79 ± 0.16 | 2.88 ± 0.48 | – | –
QECPPDGRSFREEQCVSFNSHVYN [ADAMTSL2] | 4.08 ± 0.11 | 3.91 ± 0.2 | – | –
IVETLCIIWFSFELVVRFFACPSK [KCNA1] | 3.11 ± 0.19 | 3.15 ± 0.32 | – | –
IVCAQSSQSLWNRLSVLLNLLPAA [SMG5] | 2.8 ± 0.31 | 2.99 ± 0.28 | – | –
CSEGFLINEDLKTCSRVDYCLLSD [MATN2] | 2.99 ± 0.44 | 3.28 ± 0.14 | – | –
SRTVRQFQFTDWPEQGVPKSGEGF [PTPRD] | 3.88 ± 0.25 | 4.02 ± 0.68 | – | –
CGKYFQGRGLKSHAYIHSVQFSHH [USP39] | 2.37 ± 0.42 | 2.04 ± 0.56 | – | –

Sequence | protein stability index [1] | protein stability index [2] | protein stability index (treatment: DMSO, c terminus: native) | protein stability index (treatment: MLN4924 1 uM, 8 h, c terminus: native)
KSALGAMGQWQLEVGDPAPLGAGN [DPCD] | 3.98 ± 0.21 | 3.96 ± 0.27 | – | –
MGFVPHNGSLYGQASSERLGLDNR [ADAMTSL2] | 3.59 ± 0.38 | 3.66 ± 0.35 | – | –
RVQQHIESKLLGSNSSRMYFTQTL [MLH1] | 2.37 ± 0.23 | 2.29 ± 0.38 | – | –
DTLQNDYFAIKQEVVTPDNMCMGR [ETS1] | 3.65 ± 0.31 | 4.05 ± 0.45 | – | –
KCGIHSMFPLHLAALNAHSDCCRK [ANKRD44] | 2.36 ± 0.2 | 2.62 ± 0.33 | – | –
DLDPLELIALANRFCLPHLVALAE [RHOBTB1] | 2.5 ± 0.11 | 2.14 ± 0.2 | – | –
GSAAPGSPLAADPACLGQPHTPGK [FOXJ1] | 5.25 ± 0.29 | 5.4 ± 0.13 | – | –
DSVDAQNICHVWHMNVEALPEWIS [RNF180] | 2.44 ± 0.34 | 2.62 ± 0.38 | – | –
WNITKLSIEYDSEPFGKERDAAIK [CRY1] | 2.9 ± 0.29 | 2.9 ± 0.28 | – | –
EQPHGRSRRREQSSSRNSHLVQHQ [ZNF8] | 4.78 ± 0.23 | 4.76 ± 0.28 | – | –
SRRLQLGSEENGRYFSLSLMSGAL [PCDHGC5] | 2.27 ± 0.4 | 2.3 ± 0.35 | – | –
SPGKQPGENSDCHRDSSQAIPITE [ZNF8] | 5.4 ± 0.17 | 5.429 ± 0.041 | – | –
HLLEAEPLSPIQASSVHLKSESSL | 4.16 ± 0.1 | 4.14 ± 0.15 | – | –
NCIHRDIKPENILITKQGIIKICD [CDKL4] | 2.51 ± 0.39 | 3.28 ± 0.24 | – | –
CEYNFVSPSKSFWTRITCAEEGWS [CFHR2] | 2.31 ± 0.35 | 2.05 ± 0.089 | – | –
ALARLGTVTVISPLELMRTKLQAQ [SLC25A39] | 2.18 ± 0.39 | 2.15 ± 0.72 | – | –
KLNEQSPTRCTLEAGAMTFHYIIE [SEC22B] | 2.38 ± 0.75 | 2.25 ± 0.46 | – | –
ILAIIAKEGDCAPEEKIWEELSVL [MAGEA6] | 2.44 ± 0.26 | 2.48 ± 0.43 | – | –
MQNSNECKRNFVAVYDGSSSVEDL [NETO1] | 4.59 ± 0.066 | 4.68 ± 0.22 | – | –
SYMRNENVISELNIEDYFSHHLAV [FBXO39] | 2.26 ± 0.23 | 2.4 ± 0.38 | – | –
RDNGHSNRDEHSSRGYRNHRSSRE [RBMY1A1] | 5.1 ± 0.074 | 5.24 ± 0.088 | – | –
LTASGDGTCALWDVESGQLLQSFH [GNB5] | 2.67 ± 0.36 | 2.76 ± 0.24 | – | –
QPASELLQDVRVNQSRCEMKTFVS [TRIM15] | 2.98 ± 0.48 | 3.25 ± 0.41 | – | –

Sequence | protein stability index [1] | protein stability index [2] | protein stability index (treatment: DMSO, c terminus: native) | protein stability index (treatment: MLN4924 1 uM, 8 h, c terminus: native)
ERREALCRQLSESESSLEMDDERY [CCDC6] | 5.41 ± 0.11 | 5.27 ± 0.16 | – | –
CAPCPRRSEPVVQCQYPSGAEAG [IRX6] | – | – | 2.67 ± 0.7 | 2.3 ± 0.41
QGEYSRKLEERFMTLAANHELMLR [CCDC89] | 3.15 ± 0.18 | 3.18 ± 0.25 | – | –
ELNDRFANFIEKVRFLEQQNAALR [PRPH] | 2.39 ± 0.21 | 2.71 ± 0.33 | – | –
GMDDFLGVYSMPAGTKVFEVPEMS [TLE6] | 3.08 ± 0.23 | 3.15 ± 0.25 | – | –
ACSEGDVNAVRKLLIEGRSVNEHT [ANKRD17] | 4.22 ± 0.45 | 4.64 ± 0.11 | – | –
SNMKSRYTTEFHELEKIGSGEFGS [WEE1] | 3.9 ± 0.31 | 4.04 ± 0.19 | – | –
AEHWKHKKEESGRERKKNWGGQED [PBXIP1] | 5.24 ± 0.37 | 4.96 ± 0.4 | – | –
PSPAPAVAAAAAATTAATAAATTT [SNAP91] | 5.33 ± 0.31 | 5.39 ± 0.17 | – | –
DINREQLNDIFHLLKSHTNVLSVN [TPH1] | 2.18 ± 0.17 | 2.27 ± 0.23 | – | –
NYLFMGDYVDRGYYSVETVTLLVA [PPP2CA] | 2.71 ± 0.6 | 2.82 ± 0.56 | – | –
CMHEVHTFVSTCQAIDATVAAELL [HES6] | 2.8 ± 0.85 | 2.34 ± 0.3 | – | –
KSLSIQYLELDRLVWRNSIRSSFI [FBXO39] | 2.51 ± 0.64 | 2.28 ± 0.17 | – | –
SSPPQGASPVPESSLTADLLSVDA [SNAP91] | 5.28 ± 0.18 | 5.34 ± 0.16 | – | –
HLIFSYSVWVLRDFPEDGLKIFTE [VPS39] | 2.98 ± 0.58 | 3.15 ± 0.54 | – | –
LSTLAGIRVMVHGRNHTPFLGHHS [SCNN1D] | 2.69 ± 0.28 | 2.64 ± 0.23 | – | –
ANYIDGYRKQNAYIATQGSLPETF [PTPRD] | 2.94 ± 0.25 | 3.13 ± 0.45 | – | –
KSDSPTGDVLLDETLKHIKATEPT [GOLPH3L] | 5.16 ± 0.27 | 5.26 ± 0.15 | – | –
EARSYLSEEMIAEFKAAFDMFDAD [TNNC2] | 4.16 ± 0.46 | 4.15 ± 0.23 | – | –
AAVPGTQLSPSPTPASQSPKKPPA [SNAP91] | 5.44 ± 0.25 | 5.37 ± 0.33 | – | –
LAIKAITSSAKVDMTFEEEAQLLQ [FKBP8] | 2.95 ± 0.19 | 3.29 ± 0.34 | – | –
VAAALRYLQIFATRRSCIDESQIS [FAM189A2] | 2.37 ± 0.37 | 2.41 ± 0.17 | – | –
QRVLFSGSSDHSVIMWDIGGRKGT [WDFY2] | 2.8 ± 0.43 | 2.94 ± 0.14 | – | –

Sequence | protein stability index [1] | protein stability index [2] | protein stability index (treatment: DMSO, c terminus: native) | protein stability index (treatment: MLN4924 1 uM, 8 h, c terminus: native)
TARPFGAPPPADSAPQQNGQPLRP [PDLIM7] | 4.84 ± 0.52 | 4.92 ± 0.058 | – | –
ERMRNSRDRLLNRYRQAGSSGPGN [RPAIN] | 4.12 ± 0.25 | 4.41 ± 0.27 | – | –
FIPAHVAFDKKVLKFDAYFQEDVP [EFHC1] | 2.24 ± 0.23 | 2.57 ± 0.58 | – | –
GREDEDGWETRGDRKARKPLVEKK [HES6] | 5.4 ± 0.14 | 5.34 ± 0.37 | – | –
THFASQEFFSANAISDQLLGAGSD [ADAMTSL2] | 4.27 ± 0.23 | 4.23 ± 0.25 | – | –
FQGSMRIFTKKLPHPDLPAEEKEQ [USP39] | 2.55 ± 0.75 | 3.77 ± 0.69 | – | –
MENVPKENKVVEKAPVQNEAPALG [BEX5] | 5.33 ± 0.19 | 5.46 ± 0.16 | – | –
QSLNDRLASYLDRVRSLETENRRL [KRT18] | 3.65 ± 0.044 | 3.67 ± 0.23 | – | –
FMGTISDVKTNVQLLKGRVDNIST [CD207] | 3.02 ± 0.22 | 3.12 ± 0.32 | – | –
RLPRQNSDGGQKNKPREHIIDCGD [WSB1] | 4.54 ± 0.39 | 5.07 ± 0.095 | – | –
SSSASYGGGFGGGSCQLGGGRGVS [KRT13] | 3.71 ± 0.65 | 3.94 ± 0.36 | – | –
GSKKKFDKCMVCGGDGSGCSKQSG [ADAMTS4] | 4.18 ± 0.4 | 4.02 ± 0.34 | – | –
FFVVETLCIIWFSFELLVRFFACP [KCNA3] | 3.11 ± 0.52 | 2.74 ± 0.42 | – | –
ETSVGTYESHSTSELEDLTEPEQR [TPD52L3] | 5.69 ± 0.14 | 5.45 ± 0.28 | – | –
ASLQASIFSGAASLGYGTNVAATG [APBB1IP] | 2.95 ± 0.27 | 2.85 ± 0.33 | – | –
GSCSTEVEKETQEKMTILQTYFRQ [ATP6V1G1] | 2.5 ± 0.25 | 2.62 ± 0.3 | – | –
FLEEAHEWNQKRARKAMRNGISPI [N4BP2L1] | 3.1 ± 0.29 | 3.18 ± 0.34 | – | –
VRTAAIKAMLQLHERGLKLHQTIY [INTS4] | 2.58 ± 0.35 | 2.44 ± 0.33 | – | –
LSASQKALKEKEKASWSSLSMDEK [COX4I1] | 4.61 ± 0.28 | 4.84 ± 0.22 | – | –
LQDVIMQVADVPEKPRVPAFACQV [ZNF511] | 2.37 ± 0.28 | 2.69 ± 0.21 | – | –
